Reference: patent US20190085054A1 (Amgen, published 2019)
Residue numbers refer to the chain shown, from its start. Names may count otherwise. Each block holds one binder with its values, some of them ahead of it.

Legend:
Assay in all cases: cell-based or functional assay
[1] = biological target: T1, human MMP2 (pro-MMP2 activated with APMA) (human, UniProt P08253 30-660)
T1 sequence (looked up): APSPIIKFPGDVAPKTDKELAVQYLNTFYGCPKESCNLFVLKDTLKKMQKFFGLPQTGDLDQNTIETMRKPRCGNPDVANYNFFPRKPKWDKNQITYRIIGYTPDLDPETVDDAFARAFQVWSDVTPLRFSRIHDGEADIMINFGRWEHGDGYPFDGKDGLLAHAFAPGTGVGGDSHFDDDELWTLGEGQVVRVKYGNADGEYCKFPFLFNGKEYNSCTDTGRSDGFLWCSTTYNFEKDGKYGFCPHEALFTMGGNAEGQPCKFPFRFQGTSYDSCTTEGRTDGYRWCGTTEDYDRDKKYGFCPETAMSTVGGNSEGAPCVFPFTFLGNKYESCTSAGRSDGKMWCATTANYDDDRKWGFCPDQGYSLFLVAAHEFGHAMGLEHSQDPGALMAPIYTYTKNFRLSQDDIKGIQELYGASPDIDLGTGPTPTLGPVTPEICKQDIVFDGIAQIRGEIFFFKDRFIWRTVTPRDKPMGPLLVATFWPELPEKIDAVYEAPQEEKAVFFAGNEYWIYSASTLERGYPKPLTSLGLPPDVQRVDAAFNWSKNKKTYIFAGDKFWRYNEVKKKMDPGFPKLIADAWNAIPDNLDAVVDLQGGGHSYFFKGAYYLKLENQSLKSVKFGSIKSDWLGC

[2] = biological target: T2, catalytic domain of human MMP9 (human, UniProt P14780 107-444, limits assumed)
T2 sequence (P14780 107-444 limits assumed): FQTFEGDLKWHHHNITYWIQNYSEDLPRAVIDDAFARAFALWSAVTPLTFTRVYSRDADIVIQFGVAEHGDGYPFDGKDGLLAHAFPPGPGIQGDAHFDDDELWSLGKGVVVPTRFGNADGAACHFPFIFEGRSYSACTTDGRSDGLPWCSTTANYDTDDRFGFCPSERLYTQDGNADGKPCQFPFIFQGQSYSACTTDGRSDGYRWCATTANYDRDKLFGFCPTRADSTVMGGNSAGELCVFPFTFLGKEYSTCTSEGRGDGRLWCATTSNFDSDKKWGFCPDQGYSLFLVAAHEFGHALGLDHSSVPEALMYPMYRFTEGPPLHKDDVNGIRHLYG

active MMP13 = active MMP13 (UniProt P45452 20-471, limits assumed)
[3] = biological target: T1, human MMP2 (pro-MMP2 activated with …); remark: listed apart in the source
[4] = biological target: T2, catalytic domain of human MMP9; remark: listed apart in the source

B2: TIMP-3 mutein K45N, V47T, F57N, V97N, K99T, R138T, G173T (other)
chain: CTCSPSHPQDAFCNSDIVIRANVTGKKLVKEGPNGTLVYTIKQMKMYRGFTKMPHVQYIHTEASESLCGLKLENNTYQYLLTGRVYDGKMYTGLCNFVERWDQLTLSQRKGLNYTYHLGCNCKIKSCYYLPCFVTSKNECLWTDMLSNFTYPGYQSKHYACIRQKGGYCSWYRGWAPPDKSIINATDP
MMP2 Inhibition Shift [3]: 6 fold
MMP9 Inhibition Shift [4]: 8 fold

B3: TIMP-3 mutein K45N, V47T, F57N, K75N, P77T, K94N, E96T, R138T, G173T (other)
chain: B2 chain with K52N, P54T, K71N, E73T, N74V, T76K
MMP2 Inhibition Shift [3]: 7 fold
MMP9 Inhibition Shift [4]: 25 fold

B5: TIMP-3 mutein K45N, V47T, F57N, K94N, E96T, R138T, G173T (other)
chain: B2 chain with K71N, E73T, N74V, T76K
MMP2 Inhibition Shift [3]: 5 fold
MMP9 Inhibition Shift [4]: 15 fold

B6: TIMP-3 mutein K45S, F57N, H78N, Q80T, K94N, E96T, R138T, G173T (other)
chain: B2 chain with N22S, T24V, H55N, Q57T, K71N, E73T, N74V, T76K
MMP2 Inhibition Shift [3]: 5 fold
MMP9 Inhibition Shift [4]: 18 fold

B7: TIMP-3 mutein K45N, V47T, F57N, K94N, E96T, D110N, K112T, G173T, R186Q, K188Q (other)
chain: B2 chain with K71N, E73T, N74V, T76K, D87N, K89T, T115R, R163Q, K165Q
MMP2 Inhibition Shift [3]: 3 fold
MMP9 Inhibition Shift [4]: 12 fold

B9: TIMP-3 mutein K45E, F57N, K94N, E96T, D110N, K112T, R138T (other)
chain: B2 chain with N22E, T24V, K71N, E73T, N74V, T76K, D87N, K89T, T150G
MMP2 Inhibition Shift [3]: 1 fold
MMP9 Inhibition Shift [4]: 128 fold

B10: TIMP-3 mutein K45E, F57N, Q126N, R138T, G173T (other)
chain: B2 chain with N22E, T24V, N74V, T76K, Q103N
MMP2 Inhibition Shift [3]: 4 fold
MMP9 Inhibition Shift [4]: 8 fold

B11: TIMP-3 mutein K45S, F57N, K94N, E96T, D110N, K112T, R138T, G173T (other)
chain: B2 chain with N22S, T24V, K71N, E73T, N74V, T76K, D87N, K89T
MMP2 Inhibition Shift [3]: 6 fold
MMP9 Inhibition Shift [4]: 24 fold

B14: TIMP-3 mutein K45N, V47T, F57N, K94N, E96T, D110N, K112T, R186N, K188T (other)
chain: B2 chain with K71N, E73T, N74V, T76K, D87N, K89T, T115R, T150G, R163N, K165T
MMP2 Inhibition Shift [3]: 3 fold
MMP9 Inhibition Shift [4]: 8 fold

B15: TIMP-3 mutein K45E, K50N, V52T, K94N, E96T, D110N, K112T, R138T, G173T (other)
chain: CTCSPSHPQDAFCNSDIVIRAEVVGKNLTKEGPFGTLVYTIKQMKMYRGFTKMPHVQYIHTEASESLCGLNLTVNKYQYLLTGRVYNGTMYTGLCNFVERWDQLTLSQRKGLNYTYHLGCNCKIKSCYYLPCFVTSKNECLWTDMLSNFTYPGYQSKHYACIRQKGGYCSWYRGWAPPDKSIINATDP
MMP2 Inhibition Shift [3]: 2 fold
MMP9 Inhibition Shift [4]: 1 fold

B16: TIMP-3 mutein K45E, K49E, F57N, K94N, E96T, D110N, K112T, G173T, R186N, K188T (other)
chain: B15 chain with K26E, N27K, T29V, F34N, T115R, R163N, K165T
MMP2 Inhibition Shift [3]: 1 fold
MMP9 Inhibition Shift [4]: 5 fold

More lines, now with the values ahead:

MMP2 IC50 [1]: 600 pM
MMP9 IC50 [2]: 1 nM
MMP13 IC50 (active MMP13): 900 pM
B1: wild-type TIMP-3 (native human tissue inhibitor of metalloproteinase 3) (other)
chain: B2 chain with N22K, T24V, N34F, N74V, T76K, T115R, T150G

MMP2 Inhibition Shift [3]: 2 fold
MMP9 Inhibition Shift [4]: 1 fold
B4: TIMP-3 mutein K50N, V52T, K94N, E96T, R138T, G173T (other)
chain: B15 chain with E22K, N87D, T89K

MMP2 Inhibition Shift [3]: 2 fold
MMP9 Inhibition Shift [4]: 16 fold
B8: TIMP-3 mutein K45S, F57N, T63N, K65T, K94N, E96T, G173T (other)
chain: B15 chain with E22S, N27K, T29V, F34N, T40N, K42T, N87D, T89K, T115R

MMP2 Inhibition Shift [3]: 1 fold
MMP9 Inhibition Shift [4]: 70 fold
B12: TIMP-3 mutein K50N, V52T, F57N, K94N, E96T, D110N, K112T, R138T (other)
chain: B15 chain with E22K, F34N, T150G

MMP2 Inhibition Shift [3]: 2 fold
MMP9 Inhibition Shift [4]: 91 fold
B13: TIMP-3 mutein K50N, V52T, F57N, K94N, E96T, R138T, G173T (other)
chain: B15 chain with E22K, F34N, N87D, T89K

MMP2 Inhibition Shift [3]: 8 fold
MMP9 Inhibition Shift [4]: 16 fold
B17: TIMP-3 mutein K45S, F57N, T63N, K65T, K94N, E96T, R138T, G173T (other)
chain: B15 chain with E22S, N27K, T29V, F34N, T40N, K42T, N87D, T89K
